3 molecules from patent US20250085287A1 (ADICET THERAPEUTICS, published 2025) can be followed below.

For orientation: koff means the rate constant with which the complex falls apart. For orientation: kon means a measure of how fast the partners come together. As usually defined, the Kd is the free concentration of one partner at which half of the binding sites on the other are occupied at equilibrium, for simple one-to-one binding.

In test [1] the target is human GPC3 on tumor cells (membrane-associated GPC3 in FFPE xenograft tissue) (human) (UniProt P51654). Put plainly: IHC on hepatocellular carcinoma.
Chain of human GPC3 on tumor cells (membrane-associated GPC3 in FFPE xenograft tissue) (human) (P51654 25-554 limits assumed): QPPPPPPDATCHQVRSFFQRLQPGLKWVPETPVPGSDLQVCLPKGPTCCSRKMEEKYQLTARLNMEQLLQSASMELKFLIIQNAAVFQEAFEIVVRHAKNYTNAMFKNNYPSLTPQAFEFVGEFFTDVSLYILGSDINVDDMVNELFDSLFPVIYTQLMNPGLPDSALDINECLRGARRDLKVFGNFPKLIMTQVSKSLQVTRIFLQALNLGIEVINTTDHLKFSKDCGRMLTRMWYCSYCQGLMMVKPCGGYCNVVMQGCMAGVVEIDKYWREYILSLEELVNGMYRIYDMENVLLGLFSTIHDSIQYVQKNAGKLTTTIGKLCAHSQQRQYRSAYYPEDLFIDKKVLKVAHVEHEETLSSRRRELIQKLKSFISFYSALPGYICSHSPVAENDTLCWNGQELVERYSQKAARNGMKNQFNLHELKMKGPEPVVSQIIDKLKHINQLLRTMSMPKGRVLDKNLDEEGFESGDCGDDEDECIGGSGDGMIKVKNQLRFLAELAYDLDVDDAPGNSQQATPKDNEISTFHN
Test [2] has the same target. Description: IHC on FFPE xenograft tumor tissue, Huh7.
For test [3] the target is unchanged. Put plainly: IHC on FFPE xenograft tumor tissue, Hep3B.
Test [4] has the same target. Description: IHC on FFPE xenograft tumor tissue, HepG2.
Test [5] shares this target. Description: IHC on squamous cell carcinoma of the lung.
Test [6] has the same target. Description: IHC on FFPE xenograft tumor tissue, PP5 (PLC/PRF/5).
The target is the same in test [7]. Put plainly: IHC on FFPE xenograft tumor tissue; Hep3B, table row 1.
The target is the same in test [8]. Put plainly: IHC on FFPE xenograft tumor tissue; Hep3B, table row 2.
Test [9] shares this target. Put plainly: IHC on FFPE xenograft tumor tissue; Hep3B, table row 3.
Test [10] has the same target. Description: IHC on FFPE xenograft tumor tissue; HepG2, table row 4.
Test [11] has the same target. Put plainly: IHC on FFPE xenograft tumor tissue; HepG2, table row 5.
Test [12] shares this target. Put plainly: IHC on FFPE xenograft tumor tissue; HepG2, table row 6.
Test [13] shares this target. Description: IHC (DAB), implanted HepG2 tumor (GPC3hi), 1G12 at 0.5 µg/mL.
Test [14] has the same target. Put plainly: IHC on FFPE xenograft tumor tissue, cytoplasmic staining; Hep3B, table row 1.
For test [15] the target is unchanged. Put plainly: IHC on FFPE xenograft tumor tissue, cytoplasmic staining; Hep3B, table row 2.
Test [16] has the same target. Put plainly: IHC on FFPE xenograft tumor tissue, cytoplasmic staining; Hep3B, table row 3.
Test [17] shares this target. Put plainly: IHC on FFPE xenograft tumor tissue, cytoplasmic staining; HepG2.
Test [18] deals with recombinant human glypican-3 (rhGPC3) (human) (UniProt P51654). Description: BLI; antibody captured on IgG-Fc capture biosensor, antigen as analyte, global 1:1 fit.
Chain of recombinant human glypican-3 (rhGPC3) (human) (P51654 25-559): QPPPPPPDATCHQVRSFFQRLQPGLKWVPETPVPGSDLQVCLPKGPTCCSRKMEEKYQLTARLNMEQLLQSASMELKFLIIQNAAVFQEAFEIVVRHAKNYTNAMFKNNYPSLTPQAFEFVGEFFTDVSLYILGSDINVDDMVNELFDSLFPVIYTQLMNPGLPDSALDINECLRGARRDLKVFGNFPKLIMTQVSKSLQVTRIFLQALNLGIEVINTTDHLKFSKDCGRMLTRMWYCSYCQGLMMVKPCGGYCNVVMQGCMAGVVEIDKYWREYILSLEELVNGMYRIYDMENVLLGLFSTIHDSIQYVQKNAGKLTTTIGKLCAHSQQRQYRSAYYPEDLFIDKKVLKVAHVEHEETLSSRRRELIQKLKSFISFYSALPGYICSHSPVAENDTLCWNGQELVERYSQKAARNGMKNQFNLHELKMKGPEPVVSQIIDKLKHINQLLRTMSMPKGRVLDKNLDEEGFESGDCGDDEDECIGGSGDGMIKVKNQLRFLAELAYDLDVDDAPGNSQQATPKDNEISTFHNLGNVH
Test [19] has as its target human GPC3 on tumor cells (membrane-associated GPC3 in FFPE xenograft tissue) (human) (UniProt P51654). Description: IHC (DAB), implanted PP5 tumor (GPC3lo), bottom row of images, 1G12 at 0.5 µg/mL.
Test [20] has the same target. Put plainly: IHC (DAB), implanted PP5 tumor (GPC3lo), middle row of images, 1G12 at 0.5 µg/mL.
The target in test [21] is recombinant human glypican-3 (rhGPC3) (human) (UniProt P51654). Put plainly: BLI; antibody captured on IgG-Fc capture biosensor, antigen as analyte from 100 nM, 1:3 dilutions, global 1:1 fit.
Test [22] has as its target human GPC3 on tumor cells (membrane-associated GPC3 in FFPE xenograft tissue) (human) (UniProt P51654). Put plainly: IHC on FFPE xenograft tumor tissue; HepG2, table row 5 (so in the source); the four percentages of the row add up to 105.
The target is the same in test [23]. Put plainly: IHC on FFPE xenograft tumor tissue; Hep3B, table row 3 (so in the source); does not fit the 90 and the 255 of the same row.
For test [24], the target named is recombinant human glypican-3 (rhGPC3) (human) (UniProt P51654). Description: BLI; humanized GC33 captured on anti-human IgG-Fc biosensor, antigen as analyte from 100 nM, 1:3 dilutions, global 1:1 fit. (BLI is a label-free optical method that tracks binding on a fibre tip over time.)
Test [25] concerns the target T1, recombinant human glypican-5 (rhGPC5) (human, UniProt P78333 25-551, limits assumed).
T1 sequence (looked up): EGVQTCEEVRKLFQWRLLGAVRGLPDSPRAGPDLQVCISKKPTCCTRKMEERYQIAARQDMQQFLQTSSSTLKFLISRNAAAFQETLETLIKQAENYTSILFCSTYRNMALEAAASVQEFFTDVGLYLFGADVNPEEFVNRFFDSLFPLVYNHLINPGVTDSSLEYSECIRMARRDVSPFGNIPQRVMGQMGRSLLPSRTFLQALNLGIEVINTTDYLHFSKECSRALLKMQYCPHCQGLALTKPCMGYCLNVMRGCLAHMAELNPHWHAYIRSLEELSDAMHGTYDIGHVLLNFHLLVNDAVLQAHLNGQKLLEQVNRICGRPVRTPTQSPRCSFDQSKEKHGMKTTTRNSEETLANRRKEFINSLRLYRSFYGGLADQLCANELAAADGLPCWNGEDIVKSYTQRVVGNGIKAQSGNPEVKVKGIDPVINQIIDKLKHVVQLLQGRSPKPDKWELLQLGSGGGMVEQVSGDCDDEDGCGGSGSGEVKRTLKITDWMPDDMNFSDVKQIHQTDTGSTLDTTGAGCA
Description: western blot, primary antibody 1 ug/mL. Background: A western blot detects proteins with antibodies after separation by electrophoresis.

Test [26] deals with T2, recombinant human glypican-6 (rhGPC6) (human, UniProt Q9Y625 24-529, limits assumed).
T2 sequence (looked up): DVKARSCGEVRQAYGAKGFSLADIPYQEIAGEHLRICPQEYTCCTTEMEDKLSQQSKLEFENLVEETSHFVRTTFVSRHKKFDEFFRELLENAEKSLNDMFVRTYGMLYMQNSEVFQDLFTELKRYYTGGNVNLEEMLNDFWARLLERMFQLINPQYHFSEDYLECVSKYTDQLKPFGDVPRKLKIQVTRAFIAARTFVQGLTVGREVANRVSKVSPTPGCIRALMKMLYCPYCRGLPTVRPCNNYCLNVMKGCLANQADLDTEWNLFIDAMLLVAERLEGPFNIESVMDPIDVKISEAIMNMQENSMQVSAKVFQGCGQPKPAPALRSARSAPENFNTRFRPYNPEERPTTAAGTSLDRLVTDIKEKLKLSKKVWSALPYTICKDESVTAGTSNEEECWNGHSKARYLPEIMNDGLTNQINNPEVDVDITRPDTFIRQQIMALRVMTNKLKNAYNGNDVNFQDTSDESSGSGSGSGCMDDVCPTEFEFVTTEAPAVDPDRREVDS
Put plainly: western blot, primary antibody 1 ug/mL.

Test [27] addresses recombinant human glypican-3 (rhGPC3) (human) (UniProt P51654). Description: BLI; antibody captured on anti-mouse IgG-Fc biosensor, antigen as analyte, global 1:1 fit.
For test [28] the target is unchanged. Put plainly: BLI in-tandem cross-competition; buffer only, no saturating antibody (maximal binding reference).
The target is the same in test [29]. Put plainly: BLI; antibody captured on anti-mouse IgG-Fc biosensor, antigen as analyte from 100 nM, 1:3 dilutions, global 1:1 fit.
For test [30] the target is unchanged. Put plainly: BLI in-tandem cross-competition; biotinylated antigen on SA biosensor saturated with 150 nM GC33 (competitor), then 150 nM 204.
Test [31] has the same target. Description: BLI in-tandem cross-competition; biotinylated antigen on SA biosensor saturated with 150 nM 204 (self-blocking), then 150 nM 204.

On to 1G12 anti-GPC3 monoclonal antibody, for which the Membrane-bound GPC3 H-score in test [1] came out at 110; in [2], 80; in test [3], 265; in test [4], 260; in test [5] it was 90; in test [6], 75. For the same molecule, the % Tumor Cells Positive - Membranous Staining, intensity 0 was determined as 5% in test [7]; 0% in [8]; 5% in test [9]; 5% in [10]; 5% in [11]; 5% in test [12]. The % Tumor Cells Positive - Membranous Staining, intensity 1+ in [7] worked out at 5%; in test [8], 5%; in [9], 5%; in [10], 20%; in [11], 10%; in [12] it was 10%. The % Tumor Cells Positive - Membranous Staining, intensity 2+ in test [7] is 10%; in test [8], 15%; in [9] it was 20%; in [10] it was 50%; in test [11] it was 45%; in test [12], 5%. Moreover, the % Tumor Cells Positive - Membranous Staining, intensity 3+ in test [7] turned out to be 80%; in test [8] it was 80%; in test [10] it was 25%; in [12] it was 80%; in test [22], 45%; in [23], 20%. The H-Score (membranous staining) stood at 265 in [7]; 275 in test [8]; 255 in test [9]; 195 in test [10]; 220 in test [11]; 260 in test [12]. Also, the Mod/High Intensity (2/3+) came out at 90% in [7]; 95% in [8]; 90% in test [9]; 75% in test [10]; 85% in test [11]; 85% in test [12]. Moreover, the values for the Membrane-associated H-Score in test [13], in [19] and in test [20] were 285, 90 and 130, respectively. Besides, the Average Intensity of cytoplasmic staining was 1 + in test [14], 1 + in [15], 1 + in test [16] and 2 + in test [17]. Moreover, the koff in test [18] is 0.00053 s⁻¹. In addition, the kon in test [18] is 170000 M⁻¹ s⁻¹. The Kd in test [21] is 3 nM.

For GC33 anti-GPC3 antibody, the Kd in test [24] turned out to be 1 nM.

B1: 204 monoclonal antibody (mouse anti-human GPC3) (antibody, IgG2b, V domains shown)
VH: EVQLQQSGPELVKPGASVKISCKTSGYTFTEYAMHWVKQSHGKSLEWIGGINPNNGVTTYNQRFKGKATLTVDKSSSTAYMELRSLTSEDSAVYYCARGLLWYAYWGQGTLVTVSA
VL: DIKMTQSPSSMYASLGERVTITCKASQDINSYLSWFQQKPGKSPKTLIYRANRLVDGVPSRFSGSGSGQDYSLTISSLEYEDMGIYYCLQYDEFPLTFGAGTKLELK
notes: also called GPC.204
As to B1, the binding result in test [25] and in test [26] was “no binding” each time. In test [27], the koff was determined as 0.0021 s⁻¹. The kon in [27] was determined as 820000 M⁻¹ s⁻¹. The % Binding of Competing Antibody in test [28] is 100%; in test [30], 89.9%; in test [31], 18.2%. Moreover, in test [29], the Kd is 2.5 nM.
